From paper PMC8557139, “Characterization of a thermotolerant aryl-alcohol oxidase from Moesziomyces antarcticus oxidizing 5-hydroxymethyl-2-furancarboxylic acid” (Applied Microbiology and Biotechnology, 2021)

What was measured:
MaAAO [1] = biological target: T1, MaAAO (Moesziomyces antarcticus, UniProt A0A081CNK9); test: coupled […],6-DMP-HRP assay; substrate excess inhibition fit; assay type: biochemical; details: co-substrate O2, potassium phosphate pH 6.0, 25 °C
T1 construct: gene PAN0_057d6495; expressed with native signal peptide, secreted from Pichia pastoris X-33 (pPICZA); purified; non-covalent FAD; codon-optimised synthetic gene
T1 sequence (A0A081CNK9 20-638): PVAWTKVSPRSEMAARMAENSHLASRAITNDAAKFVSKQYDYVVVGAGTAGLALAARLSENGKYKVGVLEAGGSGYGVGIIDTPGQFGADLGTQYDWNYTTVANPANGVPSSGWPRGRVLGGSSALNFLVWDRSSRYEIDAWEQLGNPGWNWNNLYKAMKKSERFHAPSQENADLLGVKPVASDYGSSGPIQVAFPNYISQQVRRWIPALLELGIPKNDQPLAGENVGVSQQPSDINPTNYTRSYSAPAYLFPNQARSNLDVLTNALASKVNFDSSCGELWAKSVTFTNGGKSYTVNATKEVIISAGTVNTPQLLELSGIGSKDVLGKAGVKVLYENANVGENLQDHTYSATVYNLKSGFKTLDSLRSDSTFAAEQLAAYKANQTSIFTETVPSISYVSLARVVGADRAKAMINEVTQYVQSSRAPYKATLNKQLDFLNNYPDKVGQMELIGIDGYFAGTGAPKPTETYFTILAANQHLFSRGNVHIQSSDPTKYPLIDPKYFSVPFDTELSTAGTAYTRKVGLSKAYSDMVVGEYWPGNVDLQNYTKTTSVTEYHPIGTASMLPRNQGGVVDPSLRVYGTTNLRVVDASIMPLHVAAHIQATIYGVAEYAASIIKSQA

MaAAO [2] = biological target: T1, MaAAO; test: m-anisaldehyde formation at […] nm; substrate excess inhibition fit; assay type: biochemical; details: co-substrate O2, 100 mM phosphate pH 6.0, 25 °C
MaAAO [3] = biological target: T1, MaAAO; test: benzaldehyde formation at […] nm; substrate excess inhibition fit; assay type: biochemical; details: co-substrate O2, 100 mM phosphate pH 6.0, 25 °C
MaAAO [4] = biological target: T1, MaAAO; test: UV/Vis spectrum of native and heat-denatured enzyme; assay type: binding; details: non-covalently bound
purified protein [5] = substrate: C/C=C/C=C/CO; test: purified protein; assay type: biochemical, Moesziomyces antarcticus; details: co-substrate O2, 100 mM phosphate pH 6.0, 25 °C
purified protein [6] = substrate: C=C(C)[C@@H]1CC=C(CO)CC1; test: purified protein; assay type: biochemical, Moesziomyces antarcticus; details: co-substrate O2, 50 mM (text: 100 mM) potassium phosphate pH 6.0, 25 °C
purified protein [7] = substrate: COc1cc(CO)ccc1O; test: purified protein; assay type: biochemical, Moesziomyces antarcticus; details: co-substrate O2, 100 mM phosphate pH 6.0, 25 °C
purified protein [8] = substrate: COc1ccc(CO)c(OC)c1; test: purified protein; assay type: biochemical, Moesziomyces antarcticus; details: co-substrate O2, 100 mM phosphate pH 6.0, 25 °C
purified protein [9] = substrate: COc1ccc(CO)cc1O; test: purified protein; assay type: biochemical, Moesziomyces antarcticus; details: co-substrate O2, 100 mM phosphate pH 6.0, 25 °C
purified protein [10] = substrate: COc1ccc(CO)cc1OC; test: purified protein; assay type: biochemical, Moesziomyces antarcticus; details: co-substrate O2, 100 mM phosphate pH 6.0, 25 °C
purified protein [11] = substrate: Nc1cccc(CO)c1; test: purified protein; assay type: biochemical, Moesziomyces antarcticus; details: co-substrate O2, 50 mM (text: 100 mM) potassium phosphate pH 6.0, 25 °C, fit with substrate excess inhibition
purified protein [12] = substrate: O=Cc1ccc(CO)o1; test: purified protein; assay type: biochemical, Moesziomyces antarcticus; details: co-substrate O2, 50 mM (text: 100 mM) potassium phosphate pH 6.0, 25 °C
purified protein [13] = substrate: OC/C=C/c1ccccc1; test: purified protein; assay type: biochemical, Moesziomyces antarcticus; details: co-substrate O2, 100 mM phosphate pH 6.0, 25 °C
purified protein [14] = substrate: OCc1ccc2c(c1)OCO2; test: purified protein; assay type: biochemical, Moesziomyces antarcticus; details: co-substrate O2, 100 mM phosphate pH 6.0, 25 °C
purified protein [15] = substrate: OCc1ccccc1; test: purified protein; assay type: biochemical, Moesziomyces antarcticus; details: co-substrate O2, 100 mM phosphate pH 6.0, 25 °C, fit with substrate excess inhibition

Nc1cccc(CO)c1 [3-Aminobenzyl alcohol]
KIU (MaAAO [1]): 3.27 ± 0.98 mM

COc1cccc(CO)c1 [m-Anisyl alcohol]
KIU (MaAAO [2]): 2.09 ± 0.33 mM

OCc1ccccc1 [Benzyl alcohol]
KIU (MaAAO [3]): 1.39 ± 0.35 mM

Cc1cc2nc3c(=O)[nH]c(=O)nc-3n(C[C@H](O)[C@H](O)[C@H](O)COP(=O)(O)OP(=O)(O)OC[C@H]3O[C@@H](n4cnc5c(N)ncnc54)[C@H](O)[C@@H]3O)c2cc1C [FAD]
UV/Vis spectrum of native and heat-denatured enzyme (MaAAO [4]): confirmed that MaAAO contains a non-covalently bound FAD cofactor

B1: MaAAO (Moesziomyces antarcticus) (protein)
chain: PVAWTKVSPRSEMAARMAENSHLASRAITNDAAKFVSKQYDYVVVGAGTAGLALAARLSENGKYKVGVLEAGGSGYGVGIIDTPGQFGADLGTQYDWNYTTVANPANGVPSSGWPRGRVLGGSSALNFLVWDRSSRYEIDAWEQLGNPGWNWNNLYKAMKKSERFHAPSQENADLLGVKPVASDYGSSGPIQVAFPNYISQQVRRWIPALLELGIPKNDQPLAGENVGVSQQPSDINPTNYTRSYSAPAYLFPNQARSNLDVLTNALASKVNFDSSCGELWAKSVTFTNGGKSYTVNATKEVIISAGTVNTPQLLELSGIGSKDVLGKAGVKVLYENANVGENLQDHTYSATVYNLKSGFKTLDSLRSDSTFAAEQLAAYKANQTSIFTETVPSISYVSLARVVGADRAKAMINEVTQYVQSSRAPYKATLNKQLDFLNNYPDKVGQMELIGIDGYFAGTGAPKPTETYFTILAANQHLFSRGNVHIQSSDPTKYPLIDPKYFSVPFDTELSTAGTAYTRKVGLSKAYSDMVVGEYWPGNVDLQNYTKTTSVTEYHPIGTASMLPRNQGGVVDPSLRVYGTTNLRVVDASIMPLHVAAHIQATIYGVAEYAASIIKSQA
notes: expressed with native signal peptide, secreted from Pichia pastoris X-33 (pPICZA); purified; non-covalent FAD; codon-optimised synthetic gene
Km (purified protein [5]): 26.5 ± 1.7 µM
kcat (purified protein [5]): 11.5 s⁻¹
kcat/Km (purified protein [5]): 435000 M⁻¹ s⁻¹
Km (purified protein [6]): 23.7 ± 1.7 µM
kcat (purified protein [6]): 9.2 s⁻¹
kcat/Km (purified protein [6]): 387000 M⁻¹ s⁻¹
Km (purified protein [7]): 30.0 ± 2.4 µM
kcat (purified protein [7]): 10.6 s⁻¹
kcat/Km (purified protein [7]): 354000 M⁻¹ s⁻¹
Km (purified protein [8]): 582 µM
Km (purified protein [9]): 60.9 ± 6.7 µM
kcat (purified protein [9]): 9.6 s⁻¹
kcat/Km (purified protein [9]): 158000 M⁻¹ s⁻¹
Km (purified protein [10]): 119.0 ± 7.0 µM
kcat (purified protein [10]): 11.7 s⁻¹
kcat/Km (purified protein [10]): 98000 M⁻¹ s⁻¹
Km (purified protein [11]): 1.74 ± 0.24 µM
kcat (purified protein [11]): 6.4 s⁻¹
kcat/Km (purified protein [11]): 3.67e+06 M⁻¹ s⁻¹
Km (purified protein [12]): 341 ± 20 µM
kcat (purified protein [12]): 5.4 s⁻¹
kcat/Km (purified protein [12]): 15700 M⁻¹ s⁻¹
Km (purified protein [13]): 26.9 µM
kcat (purified protein [13]): 8.9 s⁻¹
kcat/Km (purified protein [13]): 332000 M⁻¹ s⁻¹
Km (purified protein [14]): 12.2 ± 1.0 µM
kcat (purified protein [14]): 11.3 s⁻¹
kcat/Km (purified protein [14]): 926000 M⁻¹ s⁻¹
kcat (purified protein [15]): 11.2 s⁻¹
kcat/Km (purified protein [15]): 745000 M⁻¹ s⁻¹
